Experimental data published in WO2015129919A1 (dated 2015).

Key:
[1] = target: T1, SLC6A6 (solute carrier family 6 (neurotransmitter transporter, taurine), member 6), human, native on the cell … (human, UniProt P31641 1-620); assay: flow cytometry on HCT116 cells
T1 construct: also called native SLC6A6; taurine transporter
T1 sequence: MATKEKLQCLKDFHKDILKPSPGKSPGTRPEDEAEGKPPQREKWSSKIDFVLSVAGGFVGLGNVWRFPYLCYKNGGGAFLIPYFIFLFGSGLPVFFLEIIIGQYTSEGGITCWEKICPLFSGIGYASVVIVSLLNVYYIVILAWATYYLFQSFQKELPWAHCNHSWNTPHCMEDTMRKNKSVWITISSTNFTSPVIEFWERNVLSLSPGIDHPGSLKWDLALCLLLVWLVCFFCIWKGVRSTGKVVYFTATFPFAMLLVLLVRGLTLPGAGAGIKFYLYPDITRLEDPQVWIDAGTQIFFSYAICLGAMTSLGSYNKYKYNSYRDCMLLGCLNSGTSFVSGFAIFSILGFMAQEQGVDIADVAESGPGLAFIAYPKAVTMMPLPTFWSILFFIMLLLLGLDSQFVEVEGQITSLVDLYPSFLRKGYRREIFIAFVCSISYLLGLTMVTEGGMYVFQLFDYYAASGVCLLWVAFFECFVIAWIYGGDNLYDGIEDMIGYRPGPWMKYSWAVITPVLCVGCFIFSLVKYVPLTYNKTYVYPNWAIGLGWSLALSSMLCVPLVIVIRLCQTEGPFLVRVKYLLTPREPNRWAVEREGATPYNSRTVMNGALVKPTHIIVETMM

[2] = target: T2, SLC6A6 extracellular region partial protein (E. coli recombinant, amino acid residues 143 to 216, C-terminal … (human, UniProt P31641 143-216)); assay: competition inhibition test; 402 at 10 ug/mL pre-incubated with recombinant SLC6A6 extracellular region partial protein at 15 ug/mL, read out by immunofluorescence on HCT116 cells
T2 construct: also called partial protein of the extracellular region of SLC6A6; SLC6A6 partial protein for screening
T2 sequence: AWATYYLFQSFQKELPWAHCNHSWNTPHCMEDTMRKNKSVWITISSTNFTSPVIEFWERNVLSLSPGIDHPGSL

[3] = target: T1, SLC6A6 (solute carrier family 6 …); assay: flow cytometry on HCT116 cells, antibody 10 ug/mL
[4] = target: T1, SLC6A6 (solute carrier family 6 …); assay: immunohistochemistry on breast cancer and uterine cancer tissue sections
[5] = target: T1, SLC6A6 (solute carrier family 6 …); assay: flow cytometry on 293T cells (express SLC6A6), antibody 10 ug/mL

Binder | binding result [1] | also measured
monoclonal antibody produced by mouse-mouse hybridoma 402 (antibody, V domains shown, Mouse IgG from the hybridoma) VH: VKLQQSGPELVKPGASVKVSCTASGYAFTQYNLYWVKLRHGKCPKWIGSIDPYIGGTTYNQQFKDKVTLTVDKSSSTAYLHLNSLTSEDSAIYYCARWWDGYFDVWGAGTTVTVSS VL: QIVLTQSPAIMSASLGERVTLTCTASSSVISRYLHWYQVKPGSSPKLWIYSTSNLASGVPTRFSGSGSGTSYSLTISNMEAEDAATYYCHQYHRSPLTFGAGTKLELT | binds | binding result [2]: binds
monoclonal antibody produced by mouse-mouse hybridoma 430 (antibody, V domains shown, Mouse IgG from the hybridoma; also called antibody clone 430; 430 antibody) VH: IQLQQSGPEVVKPGTSVRVSCTASGYAFTQYNLYWVKLRHGKCPKWIGSIDPYIGGANYNQQFKDKVTLTVDKSSSTAYLHLNSLTSEDSAIYYCARWWDGYFDVWGAGTTVTVSS VL: QIVLTQSPAIMSASLGERVTMTCTASSSVSFRYLHWYQVKPGSSPKLWIYSTSNLASGVPSRISGSGSGTSYFLTISNMEAEDAATYYCHQYHRSPLTFGAGTKLELT | binds | –
monoclonal antibody produced by mouse-mouse hybridoma 422 (antibody, V domains shown, Mouse IgG from the hybridoma; also called antibody clone 422) VH: VQLQQSGPEVVKPGPSLRMSCKASGYFFTGNSMNWVKKTHGRSLEWIGLIDLSNGETRFNQKFKGKATLTVDKSSGTAYMELLNLTSEDSAVYYCASRSAMIMPCFSHWGQGTLVTVSA VL: DIVMTQSHNFMSTSIGDRVNITCKASQDVATAVAWFQQKPGQSPKLLIYWTSTRHTGVPDRFTGSGYGTDFTLTISHVQSEDLADYFCQQYDTYPYTFGGGTKLEIK | binds | –
monoclonal antibody produced by mouse-mouse hybridoma 303 (antibody, V domains shown, Mouse IgG from the hybridoma) VH: VQLQQPGAEFVKPGTSVKLSCKASGYNFTRYWINWVKLRPGQGLEWIGNIYPATNGINYNEKFKSKATLTVDTFSSTAYMQLSSLASEDSGLYYCARCKTMLSRCAWFPYWGQGTLVTVSA VL: DIQMTQTTSSLSASLGDRVTINCRASQDISNYLNWYQQKPDGTVKLLIYDTSRLHSRVPSRFSGSGSGTDYSLTISNLEQEDIATYFCQQGNMLPWTFGGGTKLEIK | binds | –
antibody clone 402 human-mouse chimeric antibody (antibody, human IgG1, kappa, V domains shown, Human IgG1 heavy chain constant region and human kappa constant region, expressed in Expi293F cells; also called c402 mAb) VH: QVKLQQSGPELVKPGASVKVSCTASGYAFTQYNLYWVKLRHGKCPKWIGSIDPYIGGTTYNQQFKDKVTLTVDKSSSTAYLHLNSLTSEDSAIYYCARWWDGYFDVWGAGTTVTVSS VL: QIVLTQSPAIMSASLGERVTLTCTASSSVISRYLHWYQVKPGSSPKLWIYSTSNLASGVPTRFSGSGSGTSYSLTISNMEAEDAATYYCHQYHRSPLTFGAGTKLELTR | – | binding result [3]: binds
monoclonal antibody produced by mouse-mouse hybridoma 205 (antibody, V domains shown, Mouse IgG from the hybridoma) VH: VKLQQSGPELVKPGASVKMSCKASGYTFTSYVMHWVKQKPGQGLEWIGYINPYNDGTKYNEKFKGKATLTSDKSSSTAYMELSSLTSEDSAVYYCARRKAWFAYWGQGTLVTVSA VL: DIQMTQSPASQSASLGESVTITCLASQTIGTWLAWYQQKPGKSPQLLIYAATSLADGVPSRFSGSGSGTKFSFKISSLQAEDFVSYYCQQLYSTPLTFGGGTKLEIK | – | binding result [4]: binds
monoclonal antibody produced by mouse-mouse hybridoma 419 (antibody, V domains shown, Mouse IgG from the hybridoma) VH: IQLQQSGPELVKPGASVKVSCKAFGYAFTRHNMYWVKQRHGKCLEWIGYIDPFNGGTSYNQKFKGKATLTVDKSSSTAYMHLNSLTSEDSAVYYCARVYGNYAWFAYWGQGTLVTVSA VL: DIVMTQSHKFMSTSVGDRVSITCKASQDVSTAVAWYQQIPGQSPKLLIYSSSYRYTGVPDRFTGSGSGTDFTFTISSVQAEDLAVYYCQQHYNTPWTFGGGTKLEIK | – | binding result [5]: binds
